Results reported in patent publication US20180258172A1.

Legend:
[1] = target: human zB7H6 (full-length, on cells) (human) (UniProt Q68D85); test: competition flow cytometry, zB7H6-transfected P815 cells, 100-fold mass excess of isotype control antibody against NKp30/mFc2-biotin (no competition)
[2] = target: human zB7H6 (full-length, on cells) (human) (UniProt Q68D85); test: competition flow cytometry, zB7H6-transfected P815 cells, 100-fold mass excess of isotype control antibody (no competition)

Chain of human zB7H6 (full-length, on cells) (human) (Q68D85 25-454): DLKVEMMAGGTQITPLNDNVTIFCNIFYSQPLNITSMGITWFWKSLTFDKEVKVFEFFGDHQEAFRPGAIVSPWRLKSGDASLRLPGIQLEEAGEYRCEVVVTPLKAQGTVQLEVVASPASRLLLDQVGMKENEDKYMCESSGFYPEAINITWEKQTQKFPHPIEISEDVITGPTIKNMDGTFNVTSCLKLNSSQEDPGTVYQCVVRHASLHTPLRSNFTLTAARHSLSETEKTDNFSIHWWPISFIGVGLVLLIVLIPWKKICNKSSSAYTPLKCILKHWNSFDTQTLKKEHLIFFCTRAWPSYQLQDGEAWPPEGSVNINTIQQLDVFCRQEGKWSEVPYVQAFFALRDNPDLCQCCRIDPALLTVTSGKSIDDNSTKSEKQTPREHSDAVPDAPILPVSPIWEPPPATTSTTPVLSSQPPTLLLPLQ

MFI of NKp30/mFc2-biotin in the presence of the competitor [1]: 775
MFI of anti-zB7H6-A647 in the presence of the competitor [2]: 500
Substance: isotype control antibody
